Results published in patent publication USRE40831.

Target: hepatitis B virus surface antigen, ad antigen (Chemicon Cat. No. AG 850) (hepatitis B virus)
Test: competitive ELISA

B1: Ab19.79.5, human monoclonal antibody secreted by hybridoma cell line 19.79.5 (ECACC Accession No. 96052168) (antibody, human IgG1, V domains shown)
VH: QVQLVESGGGVVQPGGSLRLSCAPSGFVFRSYGMHWVRQTPGKGLEWVSLIWHDGSNRFYADSVKGRFTISRDNSKNTLYLQMNSLRAEDTAMYFCARERLIAAPAAFDLWGQGTLVTVSS
VL: SYVLTQPPSVSVAPGKTARISCGGNNIGTKNVHWYQQKPGQAPVLVVYADSDRPSGIPERFSGSNSGNTATLTISRVEVGDEADYYCQVWDSVSYHVVFGGGTTLTVLG
- Kd: 1.3 nM
